{"source": "paper PMC10840515", "key": {"[1]": {"target": "HLA-DR1 (HLA-DRA*0101, HLA-DRB1*0101) (human)", "test": "ELISA"}, "[2]": {"target": "HLA-DR1 (HLA-DRA*0101, HLA-DRB1*0101) (human)", "test": "ELISA", "remark": "listed apart in the source"}}, "note": "Where two headings read alike, the source gives them in different places."}
{"substance": "SARS-CoV-2 Spike peptide S486-505 (Omicron BA.1)", "values": [{"measurement": "IC50", "setting": "[1]", "value": 0.754, "unit": "µM"}]}
{"substance": "SARS-CoV-2 Spike peptide S761-775 (Omicron BA.1)", "values": [{"measurement": "IC50", "setting": "[1]", "value": 6.78, "unit": "µM"}]}
{"substance": "SARS-CoV-2 Spike peptide S761-775 (Wuhan HU-1)", "values": [{"measurement": "IC50", "setting": "[2]", "value": "> 10", "unit": "µM"}]}
